Laboratory results as given in patent publication US20230257458A1 (SUNSHINE LAKE PHARMA, published 2023).

Tests used:
[1] = target: T1, IL-11-Fc protein (UniProt P20809 22-199, limits assumed); assay: flow competition: IL-11-Fc + antibody gradient on membrane-IL-11R CHO cells; 5-20E11-5F2 antibody
T1 construct: also called IL-11 recombinant protein with Fc tag; not shown: Fc tag
T1 sequence (looked up): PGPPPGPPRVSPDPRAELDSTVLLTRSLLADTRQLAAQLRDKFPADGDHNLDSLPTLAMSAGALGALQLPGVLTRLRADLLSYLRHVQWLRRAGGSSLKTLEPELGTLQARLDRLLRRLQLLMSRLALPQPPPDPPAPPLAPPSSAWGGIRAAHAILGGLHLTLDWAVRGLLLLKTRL
Source text: The secondary antibody used in the detection was a secondary antibody conjugated with a FITC fluorophore (Goat-anti-Fc-FITC) (Abcam, ab98529).

[2] = target: T2, recombinant human protein antigen hu-IL-11-His tag (human, UniProt P20809 22-199); assay: BLI, IL-11 (His tag) on Ni-NTA sensor, antibody as analyte
T2 construct: Expressed in CHO, Ni column and Superdex75; not shown: His tag
T2 sequence (looked up): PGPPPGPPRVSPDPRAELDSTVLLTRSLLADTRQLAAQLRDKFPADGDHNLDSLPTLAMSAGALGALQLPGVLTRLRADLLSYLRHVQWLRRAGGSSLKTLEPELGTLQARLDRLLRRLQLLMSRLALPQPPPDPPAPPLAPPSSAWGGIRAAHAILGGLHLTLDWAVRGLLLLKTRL
Protocol: Bio-Layer Interferometry (BLI) was used for binding affinity determination. […] The analytes were diluted in 7 concentration gradients, the binding time was 60 s and the dissociation time was 1000 s. The buffer was 20 mM PBS, 0.15M NaCl, 0.1% BSA, 0.05% Tween 20, pH 7.

[3] = target: T3, recombinant CLC (R&D systems, 962-CL-050) (UniProt Q9UBD9 28-225); assay: ELISA, cytokine coated
T3 sequence (looked up): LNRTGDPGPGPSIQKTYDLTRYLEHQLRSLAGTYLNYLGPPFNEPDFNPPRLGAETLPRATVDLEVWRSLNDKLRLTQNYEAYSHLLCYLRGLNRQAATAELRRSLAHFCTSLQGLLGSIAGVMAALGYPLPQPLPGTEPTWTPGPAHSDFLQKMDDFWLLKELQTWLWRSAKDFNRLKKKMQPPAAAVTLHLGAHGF

[4] = target: recombinant IL-6 (Sinobiological-10395-HNAE) (UniProt P05231 30-212); assay: ELISA, cytokine coated
[5] = target: T4, recombinant IL-27 (R&D systems, 2526-IL-010) (UniProt Q8NEV9 29-243; Q14213 21-229); assay: ELISA, cytokine coated
T4 sequence (looked up) 1: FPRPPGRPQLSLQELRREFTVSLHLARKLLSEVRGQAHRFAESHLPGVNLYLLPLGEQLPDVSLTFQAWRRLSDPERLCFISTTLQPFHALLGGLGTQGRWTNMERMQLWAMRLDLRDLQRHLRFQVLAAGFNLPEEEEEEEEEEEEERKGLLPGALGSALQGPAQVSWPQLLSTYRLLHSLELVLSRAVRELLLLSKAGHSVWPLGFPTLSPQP
T4 sequence (looked up) 2: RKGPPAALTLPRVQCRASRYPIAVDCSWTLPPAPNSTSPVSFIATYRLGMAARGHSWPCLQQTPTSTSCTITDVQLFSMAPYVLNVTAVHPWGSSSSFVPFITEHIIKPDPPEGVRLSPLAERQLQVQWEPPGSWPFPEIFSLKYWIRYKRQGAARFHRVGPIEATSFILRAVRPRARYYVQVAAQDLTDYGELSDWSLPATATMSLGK

[6] = target: T5, recombinant IL-31 (Peprotech, 200-31) (UniProt Q6EBC2 24-164); assay: ELISA, cytokine coated
T5 sequence (looked up): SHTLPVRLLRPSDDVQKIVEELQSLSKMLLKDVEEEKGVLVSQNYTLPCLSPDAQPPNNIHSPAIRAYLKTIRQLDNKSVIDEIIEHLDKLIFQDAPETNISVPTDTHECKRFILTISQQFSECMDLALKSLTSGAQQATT

[7] = target: recombinant LIF (Peprotech, 300-05) (UniProt P15018 23-202); assay: ELISA, cytokine coated
[8] = target: T6, recombinant CT-1 (R&D systems, 612-CD-010) (UniProt Q16619 2-201, limits assumed); assay: ELISA, cytokine coated
T6 sequence (looked up): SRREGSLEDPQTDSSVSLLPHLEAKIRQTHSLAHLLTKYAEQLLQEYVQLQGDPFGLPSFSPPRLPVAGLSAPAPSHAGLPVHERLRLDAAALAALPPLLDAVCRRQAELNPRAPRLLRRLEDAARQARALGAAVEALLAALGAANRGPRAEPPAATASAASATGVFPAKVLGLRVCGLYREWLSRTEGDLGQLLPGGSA

[9] = target: T7, recombinant CNTF (R&D systems, 257-NT-010) (UniProt P26441 2-200); assay: ELISA, cytokine coated
T7 sequence (looked up): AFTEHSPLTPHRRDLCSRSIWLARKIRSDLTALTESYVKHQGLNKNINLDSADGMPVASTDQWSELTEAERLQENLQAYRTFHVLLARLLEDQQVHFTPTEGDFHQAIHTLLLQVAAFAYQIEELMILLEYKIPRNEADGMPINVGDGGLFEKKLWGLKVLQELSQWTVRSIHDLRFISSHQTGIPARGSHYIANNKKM

[10] = target: T8, recombinant OSM (Genscript-z03132) (UniProt P13725 26-234, limits assumed); assay: ELISA, cytokine coated
T8 sequence (looked up): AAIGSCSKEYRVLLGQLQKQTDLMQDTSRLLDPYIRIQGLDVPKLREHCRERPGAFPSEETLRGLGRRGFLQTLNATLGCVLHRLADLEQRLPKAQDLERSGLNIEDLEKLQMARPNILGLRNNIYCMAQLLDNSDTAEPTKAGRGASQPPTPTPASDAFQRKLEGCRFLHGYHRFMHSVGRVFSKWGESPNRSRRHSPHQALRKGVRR

[11] = target: T9, IL-11 protein (UniProt P20809 22-199, limits assumed); assay: SPR (Biacore), IgG captured, IL-11 6.25-400 nM as analyte
T9 construct: also called IL-11 antigen
T9 sequence (looked up): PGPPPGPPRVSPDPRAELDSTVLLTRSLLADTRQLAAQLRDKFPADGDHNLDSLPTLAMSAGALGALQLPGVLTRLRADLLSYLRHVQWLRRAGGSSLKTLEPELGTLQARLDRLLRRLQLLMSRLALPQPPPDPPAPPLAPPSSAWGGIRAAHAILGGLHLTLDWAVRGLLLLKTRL
Protocol: The measure method included the steps of capturing the humanized antibody at a flow rate of 10 ul/min. […] Finally the chip was regenerated with 10 mM glycine buffer.

Sequence of recombinant LIF (Peprotech, 300-05) (P15018 23-202 limits assumed): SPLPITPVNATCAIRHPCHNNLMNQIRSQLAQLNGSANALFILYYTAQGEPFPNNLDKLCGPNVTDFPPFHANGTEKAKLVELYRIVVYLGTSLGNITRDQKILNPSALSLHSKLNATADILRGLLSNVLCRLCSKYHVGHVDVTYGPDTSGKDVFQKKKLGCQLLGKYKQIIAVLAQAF

IC50 [1]: ~21 µg/mL
Kd [2]: 0.069 nM
koff [2]: 1.21e-05 s⁻¹
kon [2]: 175000 M⁻¹ s⁻¹
binding result [3]: no binding
binding result [4]: no binding
binding result [5]: no binding
binding result [6]: no binding
binding result [7]: no binding
binding result [8]: no binding
binding result [9]: no binding
binding result [10]: no binding
Kd [11]: 6.41 nM
koff [11]: 0.000433 s⁻¹
kon [11]: 67600 M⁻¹ s⁻¹
B1: 5-20E11-5F2 (antibody, human IgG1, kappa, V domains shown)
VH: QVQLQQSGAELVRPGTSAKISCKASDYTFTNYWLGWLKQRPGHGLEWIGHIYPGGGYTNYNEKFKGKATLTADTSSSTAYMQLSSLTSEDSAVYFCARVRSGNDALDFWGQGTSVTVSS
VL: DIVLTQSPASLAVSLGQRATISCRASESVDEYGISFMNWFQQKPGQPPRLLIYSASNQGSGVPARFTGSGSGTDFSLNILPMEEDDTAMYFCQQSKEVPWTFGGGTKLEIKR
notes: also called 5-20E11-5F2 antibody; 5-20E11-5F2 mAb
